Experimental data: the supplement of paper PMC9170038

Test system: MS2 coat protein
Assay: apparent KD of MS2 coat protein; designed switch direction (-1 OFF switch, 1 ON switch): 1; higher = weaker reporter binding
How it was run: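 An oligonucleotide input, 200 uM small-molecule ligand, or no input was present during titration of SNAP-549-labelled MS2 coat protein, which was doubled from 0.7 or 1.5 nM to 3 µM. Designed RNA switches had been transcribed on Illumina chips by stalled E. coli RNA polymerase. Apparent KD per design is the median over clusters of curves fitted to normalised cluster fluorescence.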

[1] = input ligand: microRNA oligo, concentration not stated
[2] = Eterna round: R95, input ligand: FMN 200 uM
[3] = Eterna round: R95, input ligand: microRNA oligo, concentration not stated
[4] = Eterna round: R95, input ligand: none

Row | Sequence | apparent KD of MS2 coat protein (input ligand: FMN 200 uM) [nM] | apparent KD of MS2 coat protein [1] [nM] | apparent KD of MS2 coat protein (input ligand: none) [nM] | apparent KD of MS2 coat protein [2] [nM] | apparent KD of MS2 coat protein [3] [nM] | apparent KD of MS2 coat protein [4] [nM]
1 | GCUCGCACGAUGACCCACAUGAGGAUCACCCAUGUGCUUGGGCAGGAUAUCUAGAUUAAGGAUGUAGAGAAGGGUUGAGCGAGC [SameState NG3 #27] (Eterna round: R96, puzzle: Same State NG 3) | 308 | 113 | 230 |  |  | 
2 | GCAACGUGAUUAGGAUAUGCGAAACCCAUGGAAACUACACAUGAGGAUCACCCAUGUCCAUAGCCGCAGAAGGGAUCCGGAGCA [Eternabot solution 6] (Eterna round: R96, puzzle: Same State NG 2) | 32.1 | 90.3 | 147 |  |  | 
3 | UGACACACGGCAGGAUAUGCUUAGCAAAGCUAAGCAGAAGGGCCUCAUGUCGUGGAAAUGUGACAUGAGGAUCACCCAUGUCGC [Omei SS(NG)1 Cv5] (Eterna round: R96, puzzle: Same State NG 1) | 27.3 | 17.8 | 29.9 |  |  | 
4 | GUGCUCGUGUGAGGAUAUGUUGCCGGGUCGGCUGCAGAAGGUACUAUUAUACAUGAGGAUCACCCAUGUCGCUUUUCUCCGGUA [salish99_SSNG1_r04_921] (Eterna round: R96, puzzle: Same State NG 1) | 88 | 49.6 | 73.5 |  |  | 
5 | GAAAAACAUGAGGAUCACCCAUGUAAAAAAAUGGGAGGAUAUACAAAGACGAAAGUCAAAGUAGAAGGCCUGAAAG [same state 2] (Eterna round: R96, puzzle: Same State 1) |  | 42.7 |  |  |  | 
6 | GAGCCAGUCCGAGGAUAUUACAUGAGGAUCACCCAUGUAGGCUCAGAAAAGAAAAGAGAGCCUUGGGAGAAGGCGGACUGGCUC [Xeonanisa<<9] (Eterna round: R96, puzzle: Same State NG 2) | 8.19 | 20.1 | 39.1 |  |  | 
7 | GGAAGGAGGUCAGGAUAUGAACGGAAGGUACAUGAGGAUCACCCAUGUUACGGAGGAAACCCACGUUAGAAGGGACAAGGAAGG [AK SSNG2-V2-4] (Eterna round: R96, puzzle: Same State NG 2) | 19.6 | 15.6 | 30.5 |  |  | 
8 | GCGAAAGCGGUAGGAUAUCUAGGAUAUGGGAAGACCUAAGGUUGGAAGUCACUUCACCCAGAAGGAGAGAAGGACACCGAAAGG [pwkr ssNG2 2FMN + F9.2] (Eterna round: R96, puzzle: Same State NG 2) | 36.6 | 113 | 134 |  |  | 
9 | CUAUCUACAGGUUGCAGUGCUCGUCUUAUACAUGAGGAUCACCCAUGUUAUAGCCCGGUGCUUGCGCUGGGCUGAUU [JL ViennaUCT Tearor mod 2] (puzzle: Sensor for hsa-mir-208a) |  |  |  | 36.4 | 16.4 | 43
10 | CAGCGCUGUCGAGAGGAUAUGCGGUGAUGGACAUGAGGAUCACCCAUGUUAGCGACAGCAUCACGGCAGAAGGCUCUACCGCCUG [Soteed Omei mod 43] (puzzle: Same State 2) |  |  |  | 17.9 | 22.4 | 32.3
11 | GGAGCCGGCACUGAGGAUAUUCAUAUUAAAACAUGAGGAUCACCCAUGUAGGCCAGAAGGCCUUGGGAGAAGGCAGGUCGGCCCG [Bibimaor] (Eterna round: R96, puzzle: Same State 2) | 21.7 | 250 | 311 |  |  | 
12 | AAGUUAAGCUUUUUGUUCUGCCUAUUCUGACAUGAGGAUCACCCAUGUGGUCGAACGACUACGUGUGUAGUUGAGAU [JR_SHM208A_Sub030] (puzzle: Sensor for hsa-mir-208a) |  |  |  | 174 | 252 | 278
13 | GGAGGACAUGAGGAUCACCCAUGUGGAUGGGCGCUAGGAUAUGCGAGAGGGAAGAGUGGAGCAGAAGGAGUGGGUU [JR_SS1_Sub044] (puzzle: Same State 1) |  |  |  |  | 40 | 
14 | CCAUGGUAACAUGAGGAUCACCCAUGUACAAGCUUUUUGCUCGUUUUAUUUAUUAUUAUUAUUAUUAUUAUUAUUAA [Nishu_Seq1] (puzzle: Sensor for hsa-mir-208a version 2) |  |  |  | 33.5 | 105 | 86.6
15 | AAGUAACAUGAGGAUCACCCAUGUGAGGUGAGCGUAGGAUAUCGAGGAGGAAGGGUGGAGCGAGAAGGACGAGAAG [JR_SS1_Sub097] (puzzle: Same State 1) |  |  |  | 114 | 262 | 402
16 | GGAGCCAAGGCAGGAUAUUCAUAUUAAAUAACAUGAGGAUCACCCAUGUAGGCCAGAAGGCCUUGGGAGAAGGGCCAUGGCUCG [Xeonanis - 13 mod21] (Eterna round: R96, puzzle: Same State NG 2) | 21.1 | 109 | 189 |  |  | 

Row | Sequence | apparent KD of MS2 coat protein (input ligand: FMN 200 uM) [nM] | apparent KD of MS2 coat protein [1] [nM] | apparent KD of MS2 coat protein (input ligand: none) [nM] | apparent KD of MS2 coat protein [2] [nM] | apparent KD of MS2 coat protein [3] [nM] | apparent KD of MS2 coat protein [4] [nM]
17 | AGUCCAGCCUAAGCUGGACAAAAGCAUGUACAUGAGGAUCACCCAUGUUCAUGUACAAGCUUUUUGCUCGUCUUAAU [Mat - hsa-mir-208a - Mod of JL - 60] (puzzle: Sensor for hsa-mir-208a) |  |  |  | 608 | 18.1 | 697
18 | AGACUACAACCUCGAACAUGAGGAUCACCCAUGUAAAGAUCCAAGGAUAUGGACAGGCCGAGCUACCAGAAGGUGGAAAGAGCC [Eternabot solution 7] (Eterna round: R96, puzzle: Same State NG 3) | 40.9 | 38.4 | 69.8 |  |  | 
19 | AUAAAACAUGAGGAUCACCCAUGUCAACAAAGUCGAGGAUAUGGGCAAAUAAAAUAAGAACCAGAAGGCGAAUAAU [salish99_SS1_r3_001] (puzzle: Same State 1) |  |  |  |  | 233 | 
20 | UCUUGGUUUUUGCUCGUUUUUUGUGUUGAACAUGAGGAUCACCCAUGUAUUGUACAGUCCAGUUUGAUAAUGGUCCG [JMF 56] (puzzle: Sensor for hsa-mir-208a) |  |  |  | 39 | 33.3 | 44.3
21 | AGCUAUUACGAAGGAUAUAGGGACAUGAGGAUCACCCAUGUGUACAUGAGUAAAUGUGAUCACGUCUAGAAGGUUGUACUAACA [SameState NG2 #36] (Eterna round: R96, puzzle: Same State NG 2) | 474 | 383 | 430 |  |  | 
22 | AUCCUACAUGAGGAUCACCCAUGUGACGCCUCAAUAGGAUAUCGGGCCCACAGUCAGGAACGAGAAGGAUUGAAGC [Digerier] (puzzle: Same State 1) |  |  |  | 67.5 | 29.3 | 66.7
23 | AGUCCAGCCUGAGCUGGACAAAAGCAUGUACAUGAGGAUCACCCAUGUUCAUGUACAAGCUUUUUGCUCGUCUUACA [salish99_208a_r3_076] (puzzle: Sensor for hsa-mir-208a) |  |  |  | 467 | 14.4 | 483
24 | GCUCUACAUGAGGAUCACCCAUGUUCGGACGCACGAGGAUAUGCAUGGGCGAAAGCUGGUGCAGAAGGCGUGGGAC [inDCorner] (puzzle: Same State 1) |  |  |  |  | 150 | 
25 | CAUCUCCCUUUUACAUGAGGAUCACCCAUGUUUUCAUAUUGAGAGGAUAUCGUAUUUGGAAACAUCGAGAAGGCUCAUUUGUAU [JR_SSNG3_Sub073] (Eterna round: R96, puzzle: Same State NG 3) |  | 345 |  |  |  | 
26 | CUGAAAUGUCAAGGAUAUCACGUCGAUUAGACGUGAGAAGGUGAUCUGCACAUGAGGAUCACCCAUGUGUUACAUGGGAGUCAG [Brourd's SSNG1/1-A2 mod 16] (Eterna round: R96, puzzle: Same State NG 1) | 600 | 324 | 891 |  |  | 
27 | CUUAUUAAUGCAGGAUAUGAUUAACAUGAGGAUCACCCAUGUGGUGUUGUGAGUAAGGAGAGUGAUCAGAAGGGCAUUUUUUUU [JMF's solution 41] (Eterna round: R96, puzzle: Same State NG 2) | 711 | 410 | 656 |  |  | 
28 | GUAACAUGACGAGGAUAUGGAACAUGAGGAUCACCCAUGUAUGUUCCAUAACGCGAAUAAAGAAUCCAGAAGGCGUCGUGAAAU [Mat - Same State NG 2 - JL mod - D33] (Eterna round: R96, puzzle: Same State NG 2) | 22.1 | 118 | 120 |  |  | 
29 | GAGUUACUAUCUCAGGAUAUCAUGUCAAAGACAUGAGGAUCACCCAUGUACCAGGAAACUGGUUAUGAGAAGGGAGAUAGUAACA [Mat - Same State 2 - Mod - D51] (puzzle: Same State 2) |  |  |  | 113 | 9.6 | 14.4
30 | GUACUACAUGAGGAUCACCCAUGUACGCCAGUACGAGGAUAUGCAUGGGCGCUAGCUGGUGCAGAAGGCGUAGUGC [Pin2Pin #6] (puzzle: Same State 1) |  |  |  | 21 | 24 | 45.5
31 | GACAAUCUAUCUGAGGAUAUCAUGAAAAAAACAUGAGGAUCACCCAUGUGCAGGAAAACUGCAUAUGAGAAGGCAGAUAGAUUGC [salish99_SS2_r3_012] (puzzle: Same State 2) |  |  |  | 34.1 | 443 | 781
32 | GCUGCAAGGGCAGGAUAUGGGUCCAGAGCGCAAGUGCGCCCUGGUACAUGAGGAUCACCCAUGUCCCAGAAGGGCCCAAGCAGC [Vetierribi] (Eterna round: R96, puzzle: Same State NG 2) | 12.9 | 68.9 | 87.6 |  |  | 
